# Results published in IntAct's records for PubMed 12718882.
# B1: Splicing factor U2AF 65 kDa subunit (Homo sapiens), P26368 (parent)
# chain: MSDFDEFERQLNENKQERDKENRHRKRSHSRSRSRDRKRRSRSRDRRNRDQRSASRDRRRRSKPLTRGAKEEHGGLIRSPRHEKKKKVRKYWDVPPPGFEHITPMQYKAMQAAGQIPATALLPTMTPDGLAVTPTPVPVVGSQMTRQARRLYVGNIPFGITEEAMMDFFNAQMRLGGLTQAPGNPVLAVQINQDKNFAFLEFRSVDETTQAMAFDGIIFQGQSLKIRRPHDYQPLPGMSENPSVYVPGVVSTVVPDSAHKLFIGGLPNYLNDDQVKELLTSFGPLKAFNLVKDSATGLSKGYAFCEYVDINVTDQAIAGLNGMQLGDKKLLVQRASVGAKNATLVSPPSTINQTPVTLQVPGLMSSQVQMGGHPTEVLCLMNMVLPEELLDDEEYEEIVEDVRDECSKYGLVKSIEIPRPVDGVEVPGCGKIFVEFTSVFDCQKAMQGLTGRKFANRVVVTKYCDPDSYHRRDFW
# partner: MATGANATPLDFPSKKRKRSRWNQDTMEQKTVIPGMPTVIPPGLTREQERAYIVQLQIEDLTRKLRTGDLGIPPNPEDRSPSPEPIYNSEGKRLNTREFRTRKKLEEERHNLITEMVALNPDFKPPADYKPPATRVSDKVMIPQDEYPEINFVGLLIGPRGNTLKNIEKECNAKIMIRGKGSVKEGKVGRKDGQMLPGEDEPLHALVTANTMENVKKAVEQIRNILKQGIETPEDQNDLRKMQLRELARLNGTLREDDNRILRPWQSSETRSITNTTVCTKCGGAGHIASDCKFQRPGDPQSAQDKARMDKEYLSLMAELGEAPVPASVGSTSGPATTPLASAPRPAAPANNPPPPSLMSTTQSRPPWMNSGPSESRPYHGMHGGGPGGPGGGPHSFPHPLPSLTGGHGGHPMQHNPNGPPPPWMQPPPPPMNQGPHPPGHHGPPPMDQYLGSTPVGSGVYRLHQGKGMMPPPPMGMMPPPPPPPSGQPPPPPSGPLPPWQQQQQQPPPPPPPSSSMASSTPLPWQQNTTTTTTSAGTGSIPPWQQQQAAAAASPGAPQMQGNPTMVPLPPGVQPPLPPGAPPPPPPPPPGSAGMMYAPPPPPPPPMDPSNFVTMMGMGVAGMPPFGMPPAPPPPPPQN
# B2: Splicing factor 1 (Homo sapiens), Q15637 (parent)
# chain: B1 partner
# Variants of: B1
# Settings: with sf01_human SF1, Q15637
row,Variant,effect of a mutation on the interaction
1,E387G;E388A,with no effect
2,E387R;E388R,disrupting interaction
3,D391A;D392A;E393A;E394A,decreasing interaction
4,D391R;D392R;E393K;E394K,disrupting interaction
5,E396A;E397A,with no effect
6,E396G;E397A,disrupting interaction
7,E396K;E397K,disrupting interaction
8,F454A,decreasing interaction
9,F454Y,decreasing interaction

# Variants of: B2
# Settings: with U2AF2, P26368
row,Variant,effect of a mutation on the interaction
1,K15E,decreasing interaction
2,K15E;K16E;R17D,disrupting interaction
3,K16A;R17A;K18A,with no effect
4,K16E;R17D;K18E,disrupting interaction
5,R17E,with no effect
6,R19E,with no effect
7,R21D,disrupting interaction
8,R21K,with no effect
9,W22A,disrupting interaction
10,W22F,with no effect
11,N23A,with no effect
12,Q24A,with no effect
